Results taken from US20060067886A1, “Gastrin receptor-avid peptide conjugates” (priority 1997, published 2006).

Experiment: Biodistribution of radiometal-DOTA-BBN conjugates in CF1 normal mice
Conditions: 1 hour post-injection

Row | SMILES | Avg % ID, Blood | Avg % ID, Carcass | Avg % ID, Heart | Avg % ID, Kidney | Avg % ID, L. Intestine | Avg % ID, Liver | Avg % ID, Lung | Avg % ID, Muscle | Avg % ID, Pancreas | Avg % ID, S. Intestine | Avg % ID, Spleen | Avg % ID, Stomach | Avg % ID/gm, Blood | Avg % ID/gm, Heart | Avg % ID/gm, Kidney | Avg % ID/gm, L. Intestine | Avg % ID/gm, Liver | Avg % ID/gm, Lung | Avg % ID/gm, Muscle | Avg % ID/gm, Pancreas | further results
1 | CSCC[C@H](NC(=O)[C@H](CC(C)C)NC(=O)[C@H](Cc1c[nH]cn1)NC(=O)CNC(=O)[C@@H](NC(=O)[C@H](C)NC(=O)[C@H](Cc1c[nH]c2ccccc12)NC(=O)[C@H](CCC(N)=O)NC(=O)CCCCCCCCCCNC(=O)CN1CCN(CC(=O)O)CCN(CC(=O)O)CCN(CC(=O)O)CC1)C(C)C)C(N)=O [177Lu-DOTA-11-Aun-BBN[7-14]NH2] [metal not drawn] | 0.47 ± 0.54 % ID | 6.69 ± 2.48 % ID | 0.19 ± 0.29 % ID | 1.76 ± 0.25 % ID | 5.03 ± 0.46 % ID | 2.26 ± 0.46 % ID | 0.17 ± 0.22 % ID | 0.11 ± 0.18 % ID | 6.89 ± 1.20 % ID | 17.10 ± 3.60 % ID | 0.24 ± 0.24 % ID | 0.64 ± 0.35 % ID | 0.78 ± 1.10 % ID/gm | 1.56 ± 2.40 % ID/gm | 4.97 ± 0.61 % ID/gm | 6.31 ± 0.86 % ID/gm | 1.65 ± 0.29 % ID/gm | 0.73 ± 0.81 % ID/gm | 0.75 ± 1.12 % ID/gm | 35.48 ± 2.39 % ID/gm | Avg % ID/gm, S. Intestine: 12.58 ± 1.73 % ID/gm; Avg % ID/gm, Spleen: 1.78 ± 1.87 % ID/gm; Avg % ID/gm, Stomach: 1.82 ± 1.12 % ID/gm
2 | CSCC[C@H](NC(=O)[C@H](CC(C)C)NC(=O)[C@H](Cc1cnc[nH]1)NC(=O)CNC(=O)[C@@H](NC(=O)[C@H](C)NC(=O)[C@H](Cc1c[nH]c2ccccc12)NC(=O)[C@H](CCC(N)=O)NC(=O)CN1CCN(CC(=O)O)CCN(CC(=O)O)CCN(CC(=O)O)CC1)C(C)C)C(N)=O [149Pm-DOTA-0-BBN[7-14]NH2] | 0.00 ± 0.00 % ID | 1.98 ± 2.27 % ID | 0.00 ± 0.00 % ID | 0.34 ± 0.28 % ID | 0.01 ± 0.02 % ID | 0.16 ± 0.15 % ID | 0.00 ± 0.00 % ID | 0.00 ± 0.00 % ID | 0.07 ± 0.01 % ID | 0.38 ± 0.25 % ID | 0.00 ± 0.00 % ID | 0.02 ± 0.05 % ID | 0.00 ± 0.00 % ID/gm | 0.00 ± 0.00 % ID/gm | 1.04 ± 0.90 % ID/gm | 0.01 ± 0.03 % ID/gm | 0.12 ± 0.10 % ID/gm | 0.00 ± 0.00 % ID/gm | 0.00 ± 0.00 % ID/gm | 0.00 ± 0.00 % ID/gm | Avg % ID/gm, S. Intestine: 0.27 ± 0.17 % ID/gm; Avg % ID/gm, Spleen: 0.00 ± 0.00 % ID/gm; Avg % ID/gm, Stomach: 0.04 ± 0.08 % ID/gm
